These results are taken from article PMC9788556 (2022).

To fix the notation:
B1: nanobody G2 (VHH)
VHH: QVQLQESGGGLVQAGGSLRLSCAASGRTFSNYFMGWFRQAPGKEREFVAAVSWSGGSTYYADSVKGRLTISRDNAKNTVYLQMNSLKPEDTAVYYCAAGERYFPMEPRRGYDYWGQGTQVTVSS
B2: nanobody A11 (VHH)
VHH: QVQLQESGGGLVQPGESLRLSCAASGRTSSSYAMGWFRQAPGKEREFVASISWSGGSTYYADSVKGRFTLSRDNAKNTVYLQMNSLKPEDTAVYYCAADGIFYSDYPLSVDDFHSWGQGTQVTVSS
B3: nanobody A10 (VHH)
VHH: QVQLQESGGGLVQAGSSLRLSCAASGGTFSNYAMGWFRQAPGKEREFVAAIGWSGGTYYTDSVEGRFTISRDNAKNTVYLQMNSLKPEDTAVYYCAAKRSGSSWSERGYDYWGQGTQVTVSS
B4: nanobody D11 (VHH)
VHH: B3 VHH with G27R, N31S, K75E, R99A
B5: nanobody D1 (VHH)
VHH: QVQLQESGGGLVQAGDSLRLSCTASGRTFSNHAMGWFRQAPGKEREIVAVIFGTGRNSWYVDSVKGRFTISRDNAKNTVALQMNRLKPEDTAVYYCASGRTWYSGSSMAEYDYWGQGTQVTVSS
B6: nanobody B4 (VHH)
VHH: QVQLQESGGGLVQPGGSLRLSCAASGFTLDYYGIGWFRQAPGKEREGVSCISSSDGSTYYADSVKGRFTISRDNAKNTVYLQMNSLKPEDTAVYYCAADLTGIGCTTAQAMGVIGDFGDFGSWGQGTQVTVSS
B7: nanobody E11 (VHH)
VHH: B6 VHH with L29S, S49A, F68S, T101S, G112D
B8: nanobody E1 (VHH)
VHH: QVQLQESGGGLVQPGGSLRLSCAASGRTFSSYFMGWFRQAPGKGRVFVASISWSGGSTYYADSVKGRFTISRDNAENTVYLQMNSLKPEDTAVYYCAAGTRATPLDWASGMDYWGKGTQVTVSS
B9: nanobody F5 (VHH)
VHH: QVQLQESGGGLVQPGGSLRLSCAASGFTLDRYAIGWFRQAPGKEREGVSCISSSDGSTYYADSVKGRFTISRDNAKNTVYLQMNSLKPEDTAVYYCARDHGPCTVLADILYDYGMDYWGKGTQVTVSS
B10: nanobody G5 (VHH)
VHH: QVQLQESGGGLVQAGGSLRLSCAASGRTFNDYAMYWFRQAPGKEREFVADITWSGSSTYYADSVKGRFTISRDNAKNTVFLQMNSLKPEDTALYYCAADSRYYGIGIGTPRYWGQGTQVTVSS
B11: nanobody F10 (VHH)
VHH: QVQLQESGGGLVQAGGSLRLSCAASGRTFSDYFMGWFRQAPGKEREFVAAVSWSGGSTYYADSVKGRFTISRDNAKNTVFLQMNSLKPEDTAVYYCAGGGSYYPMSPYDGMDYWGKGTQVTVSS
B12: nanobody D6 (VHH)
VHH: B11 VHH with G16D, D31S, V51I, A75V, F80Y, K87E, T91A, Y108R, D109N
B13: F5-Fc (Fc fusion)
chain: B9 VHH
B14: F10-Fc (Fc fusion)
chain: B11 VHH

Substitutions are numbered along the chain they refer to.

The target of one test is T1, Pfs230 D1 (aa 587–731) (Plasmodium falciparum, UniProt P68874 587-731).
T1 chain: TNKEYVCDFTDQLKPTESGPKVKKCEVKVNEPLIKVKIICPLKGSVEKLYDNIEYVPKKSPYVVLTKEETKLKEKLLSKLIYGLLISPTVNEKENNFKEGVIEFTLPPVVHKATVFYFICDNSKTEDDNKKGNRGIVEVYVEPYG
The experiment in a line: BLI; representative curve.
Consider B1, for which the Kd amounted to 0.36 nM.
B2 came in with a Kd of 1.47 nM.
Still for that read-out and setting: then B3, with 4.56 nM.
In turn, B4 came in with a Kd of 10.8 nM.
For B5, the Kd was determined as 0.29 nM.
Same read-out and setting: then B6, with 2 nM.
Take B7: binding was put at a Kd of 3.16 nM.
Regarding B8, the affinity, expressed as Kd, was 0.43 nM.
The same measure, in the same setting: as for B9, the figure is 1.01 nM.
The same measure, in the same setting: then B10, with 3.25 nM; and B11, with 0.26 nM; and B12, with 0.79 nM.

The target of the next test is T2, Pfs230 D1D2 (aa 587–889) (Plasmodium falciparum, UniProt P68874 587-889).
T2 chain: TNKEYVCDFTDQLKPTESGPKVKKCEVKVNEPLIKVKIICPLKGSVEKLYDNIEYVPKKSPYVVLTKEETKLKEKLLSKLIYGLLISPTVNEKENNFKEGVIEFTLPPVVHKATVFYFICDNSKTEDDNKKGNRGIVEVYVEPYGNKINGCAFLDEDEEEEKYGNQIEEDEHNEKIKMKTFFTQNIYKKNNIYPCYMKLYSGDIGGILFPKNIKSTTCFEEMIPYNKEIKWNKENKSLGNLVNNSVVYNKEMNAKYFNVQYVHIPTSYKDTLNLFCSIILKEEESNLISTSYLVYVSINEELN
The experiment in a line: BLI; representative curve.
In the case of B1, the Kd stood at 1.07 nM.
On the same count and under the same terms, as for B2, the figure is 1.25 nM.
For B3, the Kd was 5.5 nM.
For B4, the Kd was 15.5 nM.
Same read-out and setting: then B6, with 4.62 nM; and B7, with 2.4 nM.
For B8, the dissociation constant (Kd) was 3.58 nM.
The same measure, in the same setting: as for B9, the figure is 1.13 nM; as for B10, 8.18 nM; as for B11, 0.4 nM.
On the same count and under the same terms, then B12, with 0.51 nM.

For the next test, the target named is T2, Pfs230 D1D2 (aa 587–889). In words: BLI.
In turn, B13 displayed a koff of 0.000351 s⁻¹.
Same read-out and setting: then B14, with 3.99e-05 s⁻¹.

For another test, the target named is T3, Pfs230 Pro-D1D2 (aa 532–889) (Plasmodium falciparum, UniProt P68874 532-889).
T3 chain: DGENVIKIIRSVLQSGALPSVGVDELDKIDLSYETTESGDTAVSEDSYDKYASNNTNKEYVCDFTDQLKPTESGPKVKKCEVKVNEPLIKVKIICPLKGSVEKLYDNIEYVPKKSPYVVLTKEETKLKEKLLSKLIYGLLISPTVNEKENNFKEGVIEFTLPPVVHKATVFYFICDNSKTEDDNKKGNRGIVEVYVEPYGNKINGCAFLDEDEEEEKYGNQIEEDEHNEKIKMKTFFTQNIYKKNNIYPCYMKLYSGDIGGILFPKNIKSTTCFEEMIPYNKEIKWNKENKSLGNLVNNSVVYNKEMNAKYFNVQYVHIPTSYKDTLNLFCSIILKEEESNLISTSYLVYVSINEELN
The experiment in a line: BLI.
In the case of B13, the off-rate (koff) stood at 0.000644 s⁻¹.

The next test concerns the target T3, Pfs230 Pro-D1D2 (aa 532–889). In words: BLI; representative curve; only three curves fitted.
As for B14, the Kd was 446 nM.

For the next test, the target named is T2, Pfs230 D1D2 (aa 587–889). The experiment in a line: BLI; representative curve. The source holds these as a separate data set.
In the case of B13, the Kd amounted to 0.66 nM.

The next test concerns the target T1, Pfs230 D1 (aa 587–731). The experiment in a line: BLI.
B1 yielded a koff of 0.000179 s⁻¹.
B2: the koff came to 0.00039 s⁻¹.
The same measure, in the same setting: as for B3, the figure is 0.000788 s⁻¹; as for B4, 0.00256 s⁻¹.
Still for that read-out and setting: as for B5, the figure is 3.72e-05 s⁻¹; as for B6, 0.00138 s⁻¹; as for B7, 0.000539 s⁻¹.
The same measure, in the same setting: then B8, with 0.00019 s⁻¹; and B9, with 0.000316 s⁻¹.
For the molecule B10, the koff was 0.000635 s⁻¹.
Regarding B11, the koff was found to be 4.8e-05 s⁻¹.
On the same count and under the same terms, as for B12, the figure is 0.000158 s⁻¹.

In another test the target is T2, Pfs230 D1D2 (aa 587–889). The experiment in a line: BLI. The source holds these as a separate data set.
B1 displayed a koff of 0.00016 s⁻¹.
Same read-out and setting: as for B2, the figure is 0.000152 s⁻¹; as for B3, 0.000805 s⁻¹; as for B4, 0.00262 s⁻¹.
B6 yielded a koff of 0.00152 s⁻¹.
The same measure, in the same setting: then B7, with 0.000733 s⁻¹.
As to B8, the koff worked out at 0.000409 s⁻¹.
The same measure, in the same setting: then B9, with 0.000313 s⁻¹; and B10, with 0.000579 s⁻¹; and B11, with 8.19e-05 s⁻¹.
The same measure, in the same setting: then B12, with 0.000108 s⁻¹.

A further test deals with T1, Pfs230 D1 (aa 587–731). The experiment in a line: BLI. This is another data set of the same source.
In turn, B1 displayed a Kd of 0.49 nM.
Consider B2, for which the Kd is 1.56 nM.
On the same count and under the same terms, as for B3, the figure is 3.18 nM; as for B4, 8.31 nM.
With B5, the affinity, expressed as Kd, was 0.14 nM.
On the same count and under the same terms, then B6, with 1.71 nM; and B7, with 2.61 nM.
Still for that read-out and setting: then B8, with 0.75 nM; and B9, with 0.81 nM; and B10, with 3.36 nM.
On the same count and under the same terms, as for B11, the figure is 0.12 nM.
In turn, B12 registered a Kd of 0.39 nM.

A further test deals with T2, Pfs230 D1D2 (aa 587–889). In words: BLI. The source holds these as a separate data set.
B1: the Kd was found to be 1.11 nM.
B2 came in with a Kd of 1.43 nM.
For B3, binding was put at a Kd of 5.87 nM.
Still for that read-out and setting: then B4, with 16.1 nM.
Still for that read-out and setting: then B6, with 4.8 nM.
On the same count and under the same terms, as for B7, the figure is 2.54 nM; as for B8, 3.91 nM.
B9 displayed an equilibrium dissociation constant (Kd) of 1.22 nM.
In the case of B10, the Kd amounted to 9.09 nM.
In turn, B11 showed a Kd of 0.45 nM.
Molecule B12 gave a Kd of 0.63 nM.

For the next test, the target named is T3, Pfs230 Pro-D1D2 (aa 532–889). In words: BLI; only three curves fitted.
For the molecule B14, the koff was determined as 0.00171 s⁻¹.
